From patent EP3443010B1 (Ose Immunotherapeutics, dated 2024)
Values joined by “and” are separate entries in the source; they are usually repeats but may differ in a detail not shown here. Equal values may be shown once.

Key:
[1] = molecular target: T1, SIRPg on peripheral human CD3+ T cells (human, UniProt Q9P1W8 29-387); assay: flow cytometry on human CD3+ T cells, percent positive cells
T1 construct: whole, on cells; also called T cells that are known to express SIRPγ; human T cells

[2] = molecular target: T2, Recombinant hSIRPb-His (Antibodies-online, reference ABIN3077231) (human, UniProt Q5TFQ8 30-371); assay: Blitz (BLI), SIRPb-His on Ni-NTA biosensor, antibody at 20 ug/mL
T2 construct: also called human SIRPb recombinant protein (Blitz); not shown: His tag (histidine tail)

[3] = molecular target: T3, Recombinant hSIRPg-His (Sino Biologicals, reference 11828-H08H) (human, UniProt Q9P1W8 29-360); assay: Blitz (BLI), SIRPg-His on Ni-NTA biosensor, antibody at 20 ug/mL
T3 construct: also called human SIRPg recombinant protein; not shown: His tag (histidine tail)

[4] = molecular target: T4, recombinant hSIRPa (Sino Biologicals, reference 10975-H08H) (human, UniProt P78324 31-370); assay: ELISA, hSIRPa (Sino 10975-H08H) coated at 0.5 ug/ml, anti-mouse Fc detection
T4 construct: A different catalogue item from m21; also called SIRPa-His (ELISA with the mouse antibodies)
T4 sequence (P78324 other isoform, or with tags, fused parts or gaps H08H H08H): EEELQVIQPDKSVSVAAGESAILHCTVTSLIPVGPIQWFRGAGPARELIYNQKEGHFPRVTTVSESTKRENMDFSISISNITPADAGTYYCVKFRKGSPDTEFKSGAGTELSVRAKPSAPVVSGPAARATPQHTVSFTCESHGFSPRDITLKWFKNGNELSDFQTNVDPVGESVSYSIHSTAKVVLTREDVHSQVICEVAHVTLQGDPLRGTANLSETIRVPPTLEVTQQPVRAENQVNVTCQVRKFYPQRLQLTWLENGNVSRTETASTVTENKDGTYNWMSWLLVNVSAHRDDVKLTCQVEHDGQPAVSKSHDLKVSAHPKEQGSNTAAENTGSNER

T2 sequence (Q5TFQ8 30-371): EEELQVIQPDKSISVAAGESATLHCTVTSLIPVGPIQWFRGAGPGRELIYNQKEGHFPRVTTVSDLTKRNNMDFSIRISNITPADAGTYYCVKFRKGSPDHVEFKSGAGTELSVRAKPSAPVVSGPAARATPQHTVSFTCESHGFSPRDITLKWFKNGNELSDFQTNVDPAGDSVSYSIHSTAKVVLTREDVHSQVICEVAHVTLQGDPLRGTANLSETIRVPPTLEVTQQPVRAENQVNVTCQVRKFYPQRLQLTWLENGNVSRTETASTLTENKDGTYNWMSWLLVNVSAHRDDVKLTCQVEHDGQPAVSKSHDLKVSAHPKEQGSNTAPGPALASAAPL
T3 sequence (Q9P1W8 29-360 limits assumed): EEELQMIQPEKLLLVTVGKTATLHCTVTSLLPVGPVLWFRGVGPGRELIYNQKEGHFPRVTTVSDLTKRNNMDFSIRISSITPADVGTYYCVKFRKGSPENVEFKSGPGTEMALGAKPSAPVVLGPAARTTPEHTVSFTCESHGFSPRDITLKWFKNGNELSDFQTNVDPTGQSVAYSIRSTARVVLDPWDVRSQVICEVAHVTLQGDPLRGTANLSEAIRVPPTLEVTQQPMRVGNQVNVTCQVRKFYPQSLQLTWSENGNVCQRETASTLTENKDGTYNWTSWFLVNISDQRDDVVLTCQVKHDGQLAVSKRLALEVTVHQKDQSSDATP
T1 sequence (Q9P1W8 29-387): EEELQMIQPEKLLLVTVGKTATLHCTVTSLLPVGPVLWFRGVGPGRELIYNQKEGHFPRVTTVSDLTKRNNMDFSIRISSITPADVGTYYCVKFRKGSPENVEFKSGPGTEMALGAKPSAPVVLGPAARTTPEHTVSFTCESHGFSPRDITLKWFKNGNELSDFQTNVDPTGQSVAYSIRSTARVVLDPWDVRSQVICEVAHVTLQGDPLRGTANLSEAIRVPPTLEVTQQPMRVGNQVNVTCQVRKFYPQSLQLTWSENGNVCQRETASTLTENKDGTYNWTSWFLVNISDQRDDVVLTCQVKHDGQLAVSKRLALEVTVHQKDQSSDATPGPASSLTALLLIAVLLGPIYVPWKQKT

| Binder | binding result [2] | also measured |
| --- | --- | --- |
| chimeric mouse/human 18D5 antibody (antibody, human IgG4 S228P, kappa, also called chimeric 18D5; the chimeric antibody) heavy: not shown light: DVVMTQTPLSLPVSLGDQASISCRSSQSLVHSYGNTYLYWYLQKPGQSPKLLIYRVSNRFSGVPDRFSGSGSGTDFTLKISRVEAEDLGVYFCFQGTHVPYTFGSGTKLEIKRTVAAPSVFIFPPSDEQLKSGTASVVCLLNNFYPREAKVQWKVDNALQSGNSQESVTEQDSKDSTYSLSSTLTLSKADYEKHKVYACEVTHQGLSSPVTKSFNRGEC | binds | binding result [1]: no binding (tested: 10 micrograms/ml) |
| HFLA (antibody, human IgG4 S228P, kappa, V domains shown, also called humanized 18D5 variant HFLA) VH: EVQLVQSGAEVKKPGESLRISCKASGYSFTSYWVHWVRQMPGKGLEWMGNIDPSDSDTHYSPSFQGHVTLSVDKSISTAYLQLSSLKASDTAMYYCVRGGTGTMAYFAYWGQGTLVTVSS VL: DVVMTQSPLSLPVTLGQPASISCRSSQSLVHSYGNTYLYWYQQRPGQSPRLLIYRVSNRFSGVPDRFSGSGSGTDFTLKISRVEAEDVGVYFCFQGTHVPYTFGGGTKVEIKR | binds | – |
| HFLB (antibody, human IgG4 S228P, kappa, V domains shown, also called humanized 18D5 variant HFLB) VH: EVQLVQSGAEVKKPGESLRISCKASGYSFTSYWVHWVRQMPGKGLEWMGNIDPSDSDTHYSPSFQGHVTLSVDKSISTAYLQLSSLKASDTAMYYCVRGGTGTMAYFAYWGQGTLVTVSS VL: DVVMTQSPLSLPVTLGQPASISCRSSQSLVHSYGNTYLYWFQQRPGQSPRLLIYRVSNRFSGVPDRFSGSGSGTDFTLKISRVEAEDVGVYYCFQGTHVPYTFGGGTKVEIKR | binds | Kd [3]: 104 nM |
| HEFLB (antibody, human IgG4 S228P, kappa, V domains shown, also called humanized 18D5 variant HEFLB; anti-SIRPa HEFLB) VH: EVQLVQSGAEVKKPGESLRISCKASGYSFTSYWVHWVRQMPGKGLEWMGNIDPSDSDTHYSPSFQGHVTLSVDKSISTAYLQLSSLKASDTAMYYCVRGGTGTLAYFAYWGQGTLVTVSS VL: DVVMTQSPLSLPVTLGQPASISCRSSQSLVHSYGNTYLYWFQQRPGQSPRLLIYRVSNRFSGVPDRFSGSGSGTDFTLKISRVEAEDVGVYYCFQGTHVPYTFGGGTKVEIKR | binds | – |
| HEFLA (antibody, human IgG4 S228P, kappa, V domains shown, also called humanized 18D5 variant HEFLA) VH: EVQLVQSGAEVKKPGESLRISCKASGYSFTSYWVHWVRQMPGKGLEWMGNIDPSDSDTHYSPSFQGHVTLSVDKSISTAYLQLSSLKASDTAMYYCVRGGTGTLAYFAYWGQGTLVTVSS VL: DVVMTQSPLSLPVTLGQPASISCRSSQSLVHSYGNTYLYWYQQRPGQSPRLLIYRVSNRFSGVPDRFSGSGSGTDFTLKISRVEAEDVGVYFCFQGTHVPYTFGGGTKVEIKR | binds | – |
| mouse antibody 18D5 (antibody, mouse IgG2b, kappa, also called m18D5; m18D5 clone) heavy: QVQLQQPGAELVRPGSSVKLSCKASGYTFTSYWVHWVKQRPIQGLEWIGNIDPSDSDTHYNQKFKDKASLTVDKSSSTAYMQLSSLTFEDSAVYYCVRGGTGTMAWFAYWGQGTLVTVSAAKTTPPSVYPLAPGCGDTTGSSVTLGCLVKGYFPESVTVTWNSGSLSSSVHTFPALLQSGLYTMSSSVTVPSSTWPSQTVTCSVAHPASSTTVDKKLEPSGPISTINPCPPCKECHKCPAPNLEGGPSVFIFPPNIKDVLMISLTPKVTCVVVDVSEDDPDVQISWFVNNVEVHTAQTQTHREDYNSTIRVVSTLPIQHQDWMSGKEFKCKVNNKDLPSPIERTISKIKGLVRAPQVYILPPPAEQLSRKDVSLTCLVVGFNPGDISVEWTSNGHTEENYKDTAPVLDSDGSYFIYSKLNMKTSKWEKTDSFSCNVRHEGLKNYYLKKTISRSPGK light: DVVMTQTPLSLPVSLGDQASISCRSSQSLVHSYGNTYLYWYLQKPGQSPKLLIYRVSNRFSGVPDRFSGSGSGTDFTLKISRVEAEDLGVYFCFQGTHVPYTFGSGTKLEIKRADAAPTVSIFPPSSEQLTSGGASVVCFLNNFYPKDINVKWKIDGSERQNGVLNSWTDQDSKDSTYSMSSTLTLTKDEYERHNSYTCEATHKTSTSPIVKSFNRNEC | – | EC50 [4]: 0.06 nM and 0.009 µg/mL |
